Laboratory results taken from publication PMC7765500, “Siderophore Scaffold as Carrier for Antifungal Peptides in Therapy of Aspergillus fumigatus Infections” (Journal of Fungi, 2020).
Values after ≈ are worked out from the molar mass of the structure shown. Read-outs that look alike come from different tables or passages of the source. Square brackets hold non-standard residues; d marks the D form. Peptide text beside a SMILES is read from it. Orn(N5-OH,N5-Ac) = CC(=O)N(O)CCC[C@H](N)C(=O)O

Key:
in vivo = assay: in vivo; design: species or system BALB/c mice; settings: mouse, iv; for tissue uptake: female, BALB/c, 0.4 nmol, total radioactivity, Kidney uptake
Method: Stability test and biodistribution were conducted in 4–6 weeks-old female BALB/c mice (in-house breed, ZVTA Innsbruck). ^68Ga-labelled conjugates, dissolved in PBS (Ph. Eur. pH 7.4) and pH adjusted to pH 6.5 with sodium acetate, were injected via lateral tail vein using approximately 0.4 nmol of compound and a volume of 150 µL. For biodistribution, the same procedure was applied except for different time points of 45 and 90 min. Hereafter the animals were euthanized by cervical dislocation and the organs (blood, spleen, pancreas, stomach, liver, kidneys, heart, lung, muscle, femur) were removed and weighed. The activity of the samples was measured in a gamma counter and the results were calculated as a percentage of injected dose per gram tissue (%ID/g).

A. fumigatus [1] = assay: Uptake assay of 68Ga-labelled conjugates in A. fumigatus; format: cell-based, Aspergillus fumigatus; settings: iron-depleted AMM, 45 min, 37 °C
Method: Assays were performed as previously described. Briefly, uptake and competition assays were performed with A. fumigatus in iron-depleted and iron-replete Aspergillus minimal media (AMM), using a 96-well MultiScreen Filter Plates HTS (1 μm glass fiber filter, Merck Millipore, Darmstadt, Germany). Compounds were incubated for 45 min at 37 °C and filters measured in a gamma counter. Competition assays were performed in the same way except for pre-incubation with the iron-containing antifungal conjugates for 15 min, resulting in a competition at the MirB transporter to show specific binding to MirB.

[2] = format: physicochemical; settings: pH 7.4
Method: Aliquots of 50 µL of ^68Ga-labelled conjugate (~5 µM) were added to 450 µL of phosphate-buffered saline pH 7.4 (PBS) and 500 µL of Octanol into a 1.5 mL Eppendorf tube. The mixture was vigorously shaken for 20 min at 1400 rpm in a standard vortex (MS 3, IKA, Staufen, Germany) and hereafter, 200 µL of each phase removed and measured in a gamma counter (2480 automatic gamma counter Wizard2 3’’, Perkin Elmer, Waltham, MA, USA) LogD was calculated as the ratio of octanol/water phase using Excel. (n = 3, six technical replicates)

A. fumigatus [3] = system: A. fumigatus; design: method as in PMID 26956772; settings: 24 h, 37 °C, 0.1 × Vogel's medium; cited from earlier work
[4] = system: A. fumigatus (ATCC 46645); format: cell-based, Aspergillus fumigatus
Method: (§1) Susceptibility tests were performed according to CLSI guidelines with slight modifications. In brief, 96-well plates (Greiner Bio-One GmbH) were prepared with 100 μL of 2 × AMM (Aspergillus minimal medium) or 0.2 × Potato Dextrose Broth (PDB) containing 3 × 10^4 spores of A. fumigatus (ATCC 46645) per well. An amount of 100μL antifungal, dissolved in water, was added to get a final concentration of 1 × AMM/0.1 × PDB medium and antifungal concentration ranging from 0.031–16 μg/mL.

[5] = system: A. fumigatus (ATCC 46645); format: cell-based, Aspergillus fumigatus; remark: listed apart in the source
Method: as §1

A. fumigatus [6] = system: A. fumigatus; design: method as in PMID 31405865; settings: RPMI medium, 48 h; cited from earlier work
[7] = system: A. fumigatus mutant strain ΔsidA/ΔftrA; assay: Growth promotion assay; format: cell-based, Aspergillus fumigatus; settings: 72 h, 37 °C; for Growth promotion (in words): visually assessed
Excerpt: To assess the capability of A. fumigatus to utilize the modified siderophores, a mutant strain (ΔsidA/ΔftrA) that lacks the genes sidA and ftrA was used. These mutations impair both siderophore-mediated iron acquisition and reductive iron assimilation, in other words, high-affinity iron acquisition. If the activity of externally supplied siderophore was still intact, similar growth to [Fe]TAFC should be observed, however, in the case of growth reduction, it cannot be distinguished from antifungal activity. Spores (10^4) were point inoculated on solid 0.5 mL of AMM [26] in 24-well plates containing increasing concentrations of iron labelled siderophore ranging from 0.1–50 μM. Plates were incubated for 72 h at 37 °C in a humidity chamber and visually assessed.

[8] = Biodistribution Intestine 45 min
[9] = Biodistribution Intestine 90 min
[10] = Biodistribution Pancreas 45 min
[11] = Biodistribution Pancreas 90 min

SMILES	tissue uptake at 0.75 h (in vivo; Biodistribution Blood 45 min) [%ID/g]	tissue uptake at 1.5 h (in vivo; Biodistribution Blood 90 min) [%ID/g]	tissue uptake at 0.75 h (in vivo; Biodistribution Femur 45 min) [%ID/g]	tissue uptake at 1.5 h (in vivo; Biodistribution Femur 90 min) [%ID/g]	tissue uptake at 0.75 h (in vivo; Biodistribution Heart 45 min) [%ID/g]	tissue uptake at 1.5 h (in vivo; Biodistribution Heart 90 min) [%ID/g]	tissue uptake at 0.75 h (in vivo; [8]) [%ID/g]	tissue uptake at 1.5 h (in vivo; [9]) [%ID/g]	tissue uptake at 0.75 h (in vivo; Biodistribution Kidneys 45 min) [%ID/g]	tissue uptake at 1.5 h (in vivo; Biodistribution Kidneys 90 min) [%ID/g]	tissue uptake at 0.75 h (in vivo; Biodistribution Liver 45 min) [%ID/g]	tissue uptake at 1.5 h (in vivo; Biodistribution Liver 90 min) [%ID/g]	tissue uptake at 0.75 h (in vivo; Biodistribution Lung 45 min) [%ID/g]	tissue uptake at 1.5 h (in vivo; Biodistribution Lung 90 min) [%ID/g]	tissue uptake at 0.75 h (in vivo; Biodistribution Muscle 45 min) [%ID/g]	tissue uptake at 1.5 h (in vivo; Biodistribution Muscle 90 min) [%ID/g]	tissue uptake at 0.75 h (in vivo; [10]) [%ID/g]	tissue uptake at 1.5 h (in vivo; [11]) [%ID/g]	Uptake into A. fumigatus hyphae normalized to uptake of [68Ga]Ga-TAFC (A. fumigatus [1]) [%]	logD [2]	other results
CC(=O)N[C@@H]1CCCN(O)C(=O)/C=C(/C)CCOC(=O)[C@H](NC(=O)CCC(=O)N[C@H](CCCNC(=N)N)C(=O)N[C@H](CCCCN)C(=O)N[C@H](CCCCN)C(=O)N[C@H](Cc2c[nH]c3ccccc23)C(=O)N[C@H](Cc2ccccc2)C(=O)N[C@H](Cc2c[nH]c3ccccc23)C(N)=O)CCCN(O)C(=O)/C=C(/C)CCOC(=O)[C@H](NC(C)=O)CCCN(O)C(=O)/C=C(/C)CCOC1=O (stereo in doubt) [[^68Ga]Ga-DAFC-D-PAF26, metal not drawn]	1.08 ± 0.12	0.4 ± 0.04	1.47 ± 0.09	1.11 ± 0.16	0.76 ± 0.02	0.6 ± 0.23	0.63 ± 0.02	0.56 ± 0.03	150 ± 18	158 ± 25.6	20.8 ± 0.58	23 ± 0.89	2.16 ± 0.19	1.31 ± 0.23	0.42 ± 0.18	0.28 ± 0.1	0.41 ± 0.02	0.26 ± 0.03	137	-3.35 ± 0.16	tissue uptake (in vivo): 150 %ID/g; tissue uptake at 0.75 h (in vivo; Biodistribution Spleen 45 min): 2.21 ± 0.15 %ID/g; tissue uptake at 1.5 h (in vivo; Biodistribution Spleen 90 min): 1.97 ± 0.21 %ID/g; tissue uptake at 0.75 h (in vivo; Biodistribution Stomach 45 min): 0.45 ± 0.17 %ID/g; tissue uptake at 1.5 h (in vivo; Biodistribution Stomach 90 min): 0.35 ± 0.03 %ID/g
CC(=O)NC1CCCN(O)C(=O)/C=C(/C)CCOC(=O)C(NC(=O)[C@@H](Cc2ccccc2)NC(=O)[C@H](CC(C)C)NC(=O)[C@H](CC(N)=O)NC(C)=O)CCCN(O)C(=O)/C=C(/C)CCOC(=O)C(NC(C)=O)CCCN(O)C(=O)/C=C(/C)CCOC1=O (stereo in doubt) [[^68Ga]Ga-DAFC-NLF-Ac, metal not drawn]	0.46 ± 0.1	0.13 ± 0.1	0.16 ± 0.05	0.59 ± 0.5	0.22 ± 0.02	0.12 ± 0.11	3.09 ± 0.03	4.85 ± 1.78	35.7 ± 1.73	39.9 ± 2.66	0.85 ± 0.51	0.44 ± 0.05	0.62 ± 0.01	0.32 ± 0.06	0.18 ± 0.08	0.17 ± 0.07	0.21 ± 0.06	0.1 ± 0.06	35	-0.8 ± 0.08	tissue uptake (in vivo): 36 %ID/g; tissue uptake at 0.75 h (in vivo; Biodistribution Spleen 45 min): 0.35 ± 0.1 %ID/g; tissue uptake at 1.5 h (in vivo; Biodistribution Spleen 90 min): 0.24 ± 0.07 %ID/g; tissue uptake at 0.75 h (in vivo; Biodistribution Stomach 45 min): 0.69 ± 0.31 %ID/g; tissue uptake at 1.5 h (in vivo; Biodistribution Stomach 90 min): 2.04 ± 0.74 %ID/g
CC(=O)N[C@@H]1CCCN(O)C(=O)/C=C(/C)CCOC(=O)[C@H](NC(=O)CCC(=O)N[C@@H](CC(N)=O)C(=O)N[C@@H](CC(C)C)C(=O)N[C@H](Cc2ccccc2)C(=O)O)CCCN(O)C(=O)/C=C(/C)CCOC(=O)[C@H](NC(C)=O)CCCN(O)C(=O)/C=C(/C)CCOC1=O (stereo in doubt) [[^68Ga]Ga-DAFC-succ-NLF, metal not drawn]	0.41 ± 0.14	0.05 ± 0.03	1.76 ± 0.17	0.31 ± 0.13	0.18 ± 0.09	0.05 ± 0.02	0.4 ± 0.1	0.36 ± 0.07	3.27 ± 0.61	2.93 ± 0.38	0.37 ± 0.07	0.3 ± 0.05	0.61 ± 0.14	0.21 ± 0.05	0.08 ± 0.01	0.11 ± 0.14	0.14 ± 0.05	0.06 ± 0.02	13	-2.84 ± 0.17	tissue uptake at 0.75 h (in vivo; Biodistribution Spleen 45 min): 0.23 ± 0.04 %ID/g; tissue uptake at 1.5 h (in vivo; Biodistribution Spleen 90 min): 0.19 ± 0.03 %ID/g; tissue uptake at 0.75 h (in vivo; Biodistribution Stomach 45 min): 0.19 ± 0.09 %ID/g; tissue uptake at 1.5 h (in vivo; Biodistribution Stomach 90 min): 0.11 ± 0.01 %ID/g
N=C(N)NCCC[C@@H](N)C(=O)N[C@H](CCCCN)C(=O)N[C@H](CCCCN)C(=O)N[C@H](Cc1c[nH]c2ccccc12)C(=O)N[C@H](Cc1ccccc1)C(=O)N[C@H](Cc1c[nH]c2ccccc12)C(N)=O [H2N-D-PAF26-NH2] (H-[dR][dK][dK][dW][dF][dW]-NH2)	–	–	–	–	–	–	–	–	–	–	–	–	–	–	–	–	–	–	–	–	IC50 (A. fumigatus [3]): 8 µM; MIC 24 h ([4]; 0.1 × PDB, 37 °C, 24 h): 8 µg/mL; MIC 48 h ([4]; 0.1 × PDB, 37 °C, 48 h): 8 µg/mL; MIC / growth inhibition ([4]; 0.1 × PDB, incubation time not given): 8 µg/mL (≈ 8.43 µM); MIC 48 h ([4]; ATCC 46645, 48 h): 8.4 µM; Antifungal activity (in words) ([5]; AMM, 0.031–16 µg/mL tested): no inhibition could be observed; MIC 24 h ([5]; AMM, 37 °C, 24 h): >16 µg/mL; MIC 48 h ([5]; AMM, 37 °C): >16 µg/mL
CC(=O)N([O-])CCC[C@@H]1NC(=O)[C@H](CCCN([O-])C(C)=O)NC(=O)[C@H](CCCN([O-])C(C)=O)NC(=O)[C@@H](Cc2ccccc2)NC(=O)[C@H](CC(C)C)NC(=O)[C@H](CC(N)=O)NC1=O.[Al+3] [VL-2397] (cyclo(L[dF][Orn(N5-OH,N5-Ac)][Orn(N5-OH,N5-Ac)][Orn(N5-OH,N5-Ac)]N))	–	–	–	–	–	–	–	–	–	–	–	–	–	–	–	–	–	–	–	–	MIC (A. fumigatus [6]): 1 µg/mL
CC(=O)NC1CCCN(O)C(=O)/C=C(/C)CCOC(=O)C(NC(=O)CCC(=O)N[C@H](CCCNC(=N)N)C(=O)N[C@H](CCCCN)C(=O)N[C@H](CCCCN)C(=O)N[C@H](Cc2c[nH]c3ccccc23)C(=O)N[C@H](Cc2ccccc2)C(=O)N[C@H](Cc2c[nH]c3ccccc23)C(N)=O)CCCN(O)C(=O)/C=C(/C)CCOC(=O)C(NC(C)=O)CCCN(O)C(=O)/C=C(/C)CCOC1=O (stereo partly drawn) [[Fe]DAFC-D-PAF26]	–	–	–	–	–	–	–	–	–	–	–	–	–	–	–	–	–	–	–	–	Growth promotion (in words) [7]: low hyphal growth without sporulation; MIC 24 h ([4]; 0.1 × PDB, 37 °C, 24 h): >16 µg/mL; MIC 48 h ([4]; 0.1 × PDB, 37 °C, 48 h): >16 µg/mL; MIC 24 h ([4]; ATCC 46645, 24 h): >8.4 µM; MIC 24 h ([5]; AMM, 37 °C, 24 h): >16 µg/mL; MIC 48 h ([5]; AMM, 37 °C): >16 µg/mL; MIC 24 h ([5]; ATCC 46645, 24 h): >8.4 µM
CC(=O)NC1CCCN(O)C(=O)/C=C(/C)CCOC(=O)C(NC(=O)CCC(=O)N[C@@H](CC(N)=O)C(=O)N[C@@H](CC(C)C)C(=O)N[C@H](Cc2ccccc2)C(=O)O)CCCN(O)C(=O)/C=C(/C)CCOC(=O)C(NC(C)=O)CCCN(O)C(=O)/C=C(/C)CCOC1=O (some centres unmarked) [[Fe]DAFC-succ-NLF]	–	–	–	–	–	–	–	–	–	–	–	–	–	–	–	–	–	–	–	–	Concentration of growth induction / utilization ([7]; iron-depleted AMM, 0.1–50 µM tested): 10 to 50 µM; Growth promotion (in words) [7]: very low growth promotion; MIC 24 h ([5]; AMM, 37 °C, 24 h): >16 µg/mL; MIC 48 h ([5]; AMM, 37 °C): >16 µg/mL; MIC 24 h ([5]; ATCC 46645, 24 h): >12.0 µM; Antifungal activity lacking up to ([5]; medium and time not given): > 16 µg/mL
CC(=O)N[C@@H]1CCCN(O)C(=O)/C=C(/C)CCOC(=O)[C@H](NC(=O)CCC(=O)N[C@@H](CCCNC(=N)N)C(=O)N[C@@H](CCCCN)C(=O)N[C@@H](CCCCN)C(=O)N[C@@H](Cc2c[nH]c3ccccc23)C(=O)N[C@@H](Cc2ccccc2)C(=O)N[C@@H](Cc2c[nH]c3ccccc23)C(N)=O)CCCN(O)C(=O)/C=C(/C)CCOC(=O)[C@H](NC(C)=O)CCCN(O)C(=O)/C=C(/C)CCOC1=O [[^68Ga]Ga-DAFC-L-PAF26, metal not drawn]	–	–	–	–	–	–	–	–	–	–	–	–	–	–	–	–	–	–	90	-3.13 ± 0.02	–
